Assay results from patent US20060039918A1 (University of California, published 2006).
[ ]: non-standard residue; d: D form. The star is where a group is joined. Biotin = O=C1N[C@H]2[C@H](CS[C@H]2CCCCC(=O)*)N1; code J = not defined here

Biological target: T1, HLA DRB1*0401 molecules (biotinylated recombinant HLA-DR4) (human)
T1 construct: Recombinant and biotinylated; also called biotinylated recombinant MHC
Assay: loading of biotinylated recombinant HLA-DR4 with peptide for aAPCs and tetramers

B1: dnaJP1 peptide (QKRAAYDQYGHAAFE) (peptide)
peptide: Biotin-QKRAAYDQYGHAAFE-NH2
SMILES: C[C@H](NC(=O)[C@H](C)NC(=O)[C@H](Cc1c[nH]cn1)NC(=O)CNC(=O)[C@H](Cc1ccc(O)cc1)NC(=O)[C@H](CCC(N)=O)NC(=O)[C@H](CC(=O)O)NC(=O)[C@H](Cc1ccc(O)cc1)NC(=O)[C@H](C)NC(=O)[C@H](C)NC(=O)[C@H](CCCNC(=N)N)NC(=O)[C@H](CCCCN)NC(=O)[C@H](CCC(N)=O)NC(=O)CCCC[C@@H]1SC[C@@H]2NC(=O)N[C@@H]21)C(=O)N[C@@H](Cc1ccccc1)C(=O)N[C@@H](CCC(=O)O)C(N)=O
notes: Synthetic peptide
- binding result: binds

B2: PADRE (-) peptide (UAJAAAATLKAA) (peptide)
peptide: Biotin-[code U]A[code J]AAAATLKAA-NH2
modifications: reading uncertain
notes: Synthetic control peptide used to set the background in the T cell capture assay; also called negative control PADRE (-)
- binding result: binds
